In patent publication US20110212108A1, “NEUREGULIN/ERBB SIGNALING AND INTEGRIN” (THE REGENTS OF THE UNIVERSITY OF CALIFORNIA, priority 2008, published 2011):

B1: 3KE (175-241): NRG1α (175-241) with Lys181/Lys185/Lys187 mutated to Glu, SEQ ID NO:6 (3KE, long version) (protein)
chain: GTSHLVECAEEEETFCVNGGECFMVKDLSNPSRYLCKCQPGFTGARCTENVPMKVQNQEKAEELYQK
modifications: integrin-binding site within human neuregulin, residues 175-241of human neuregulin 1alpha, long version, 3KE mutant

Legend:
[1] = tested on: Met-1 tumor (a highly metastatic mouse breast cancer); assay: Met-1 tumor transplanted subcutaneously into nude mice; format: in vivo; conditions: 100 ng/mouse/day intraperitoneally, 5 days a week; P<0.0001
Procedure: FIG. 15. 3KE (175-222) mutant suppressed tumorigenesis in a xenograft experiment with highly metastatic Met-1 tumor. Met-1 tumor (a highly metastatic mouse breast cancer) (4×4×4 mm) was transplanted subcutaneously into nude mice. The 3KE (175-222) mutant or vehicle was intraperitoneally injected ([…] 5 days a week) to mice, starting day 0. Data are shown as means+/−SEM. P<0.0001 by 2-way ANOVA (n=2 for control and n=3 for 3KE).
It was tested whether intraperitoneal injection of 3KE (175-222) can affect tumor growth in vivo. The Met-1 line (a highly metastatic mouse mammary tumor) (Guy et al. 1992; Cheung et al. 1997) has the polyoma virus middle T (PyV-MT) transgene, and metastasize with 100% efficiency. Met-1 (4mm×4 mm×4 mm) was transplanted to nude mice and 3KE (175-222) (100 ng/mouse/day 5 days a week) was intraperitoneally injected.

[2] = tested on: Met-1 mouse breast cancer; assay: Met-1 mouse breast cancer transplanted to fat pad of FVB syngeneic mice; format: in vivo; conditions: 200 ng/mouse/day intraperitoneally from day 5
Procedure: FIG. 23. Effect of the 3KE (175-241) mutation on in vivo tumorigenesis. Top: Growth curve. […] (P<0.0001 by two way ANOVA.) Bottom: Tumor size at day 18.
In the present invention, Met-1 mouse breast cancer fragment (2×2×2 mm) was transplanted to fat pad of FVB syngeneic mice (2 per animal, 5-6 mice per group) (day 0). At day 5, intraperitoneal injection of 200 ng/mouse/day wt NRG1, 3KE, heat-denatured 3KE or vehicle (PBS) everyday were started (FIG. 23). PBS contains 0.1 mg/ml mouse serum albumin as carrier. Tumor size was measured using caliper twice a week (FIG. 23). Tumor size was calculated using V=0.4×(a×b×b) where a is the longest diameter and b is a diameter perpendicular to a. Statistical analysis was performed using Prism software package.

| Molecule | Tumor growth of Met-1 in nude mice [1] | Tumor growth curve of Met-1 in FVB mice ([2]; P<0.0001 by two way ANOVA) | Tumor size at day 18, Met-1 in FVB mice ([2]; t-test) |
| --- | --- | --- | --- |
| 3KE (175-222): NRG1 (175-222) with Lys181/Lys185/Lys187 mutated to Glu; GTSHLVECAEEEETFCVNGGECFMVKDLSNPSRYLCKCQPGFTGARCT (SEQ ID NO:11) (integrin-binding site within human neuregulin, 3KE mutant, short version) | markedly suppressed tumor growth | – | – |
| B1 | – | suppressed tumor growth | suppressed tumor growth |
